According to patent US7169559B2, “LDL receptor-related proteins 1 and 2 and treatment of bone or cartilage conditions” (Fonterra Corporate Research and Development Ltd., priority 2002, dated 2007):

Legend:
[1] = system: p42/44 MAP kinase signaling pathway; experiment: p42/44 MAP kinase signaling / phosphorylation in osteoblastic cells; type: cell-based
[2] = system: primary rat osteoblastic cells; experiment: endocytosis of lactoferrin observed under confocal microscopy; type: cell-based
Method: (§1) Osteoblasts were isolated from 20-day old fetal rat calvariae as previously described (Cornish et al. (1999) Amer. J. Physiol-Endocrinol. Metab. 277:E779–E783). Briefly, calvariae were excised and the frontal and parietal bones, free of suture and periosteal tissue, were collected. After washing, the calvariae were treated twice with 3 mL of 1 mg/mL collagenase for 7 minutes at 37° C. After discarding the supernatants from these two digestions, the calvariae were treated a further twice with 3 mL of 2 mg/mL collagenase (30 mins, 37° C.). The supernatants of the latter two digestions were pooled, centrifuged, and the cells washed. Cells were grown to confluence and then subcultured into 24 well plates. Cells were growth arrested in minimum essential medium (MEM)/0.1% bovine serum albumin for 24 h before harvest.

[3] = system: cultured osteoblastic cells; experiment: osteoblast proliferation (mitogenic/osteogenic effect); type: cell-based, rat, mouse, and human
Method: as §1
(§2) The human osteoblast-like osteosarcoma cell line SaOS-2 was maintained in DMEM (GIBCO 12100-046) supplemented with 2.2 g/L NaHCO3, 10% FBS, and 10 ml/L penicillin-streptomycin (GIBCO 15140-122). Cells were plated in 75 cm^2 flasks and when confluent used for total RNA isolation or proliferation assays.

[4] = biological target: LRP-2/megalin (Homo sapiens, UniProt P98164); experiment: binding of lactoferrin to LRP-2
[5] = unilateral local hemicalvarial injection in adult mice; type: in vivo
[6] = system: primary rat osteoblasts; experiment: apoptosis induced by serum withdrawal; type: cell-based
Method: as §1

[7] = system: osteoclastogenesis; experiment: murine bone marrow culture assay of osteoclastogenesis; type: cell-based
[8] = system: osteoblast; experiment: osteoblast differentiation / mineralized bone nodules in long-term osteoblast cultures; type: cell-based
[9] = system: chondrocytes; experiment: chondrocyte mitogenesis; type: cell-based
[10] = biological target: LRP-1 (Homo sapiens, UniProt Q07954); experiment: binding of lactoferrin to LRP-1
Chain of LRP-1 (Q07954 20-4544, species assumed): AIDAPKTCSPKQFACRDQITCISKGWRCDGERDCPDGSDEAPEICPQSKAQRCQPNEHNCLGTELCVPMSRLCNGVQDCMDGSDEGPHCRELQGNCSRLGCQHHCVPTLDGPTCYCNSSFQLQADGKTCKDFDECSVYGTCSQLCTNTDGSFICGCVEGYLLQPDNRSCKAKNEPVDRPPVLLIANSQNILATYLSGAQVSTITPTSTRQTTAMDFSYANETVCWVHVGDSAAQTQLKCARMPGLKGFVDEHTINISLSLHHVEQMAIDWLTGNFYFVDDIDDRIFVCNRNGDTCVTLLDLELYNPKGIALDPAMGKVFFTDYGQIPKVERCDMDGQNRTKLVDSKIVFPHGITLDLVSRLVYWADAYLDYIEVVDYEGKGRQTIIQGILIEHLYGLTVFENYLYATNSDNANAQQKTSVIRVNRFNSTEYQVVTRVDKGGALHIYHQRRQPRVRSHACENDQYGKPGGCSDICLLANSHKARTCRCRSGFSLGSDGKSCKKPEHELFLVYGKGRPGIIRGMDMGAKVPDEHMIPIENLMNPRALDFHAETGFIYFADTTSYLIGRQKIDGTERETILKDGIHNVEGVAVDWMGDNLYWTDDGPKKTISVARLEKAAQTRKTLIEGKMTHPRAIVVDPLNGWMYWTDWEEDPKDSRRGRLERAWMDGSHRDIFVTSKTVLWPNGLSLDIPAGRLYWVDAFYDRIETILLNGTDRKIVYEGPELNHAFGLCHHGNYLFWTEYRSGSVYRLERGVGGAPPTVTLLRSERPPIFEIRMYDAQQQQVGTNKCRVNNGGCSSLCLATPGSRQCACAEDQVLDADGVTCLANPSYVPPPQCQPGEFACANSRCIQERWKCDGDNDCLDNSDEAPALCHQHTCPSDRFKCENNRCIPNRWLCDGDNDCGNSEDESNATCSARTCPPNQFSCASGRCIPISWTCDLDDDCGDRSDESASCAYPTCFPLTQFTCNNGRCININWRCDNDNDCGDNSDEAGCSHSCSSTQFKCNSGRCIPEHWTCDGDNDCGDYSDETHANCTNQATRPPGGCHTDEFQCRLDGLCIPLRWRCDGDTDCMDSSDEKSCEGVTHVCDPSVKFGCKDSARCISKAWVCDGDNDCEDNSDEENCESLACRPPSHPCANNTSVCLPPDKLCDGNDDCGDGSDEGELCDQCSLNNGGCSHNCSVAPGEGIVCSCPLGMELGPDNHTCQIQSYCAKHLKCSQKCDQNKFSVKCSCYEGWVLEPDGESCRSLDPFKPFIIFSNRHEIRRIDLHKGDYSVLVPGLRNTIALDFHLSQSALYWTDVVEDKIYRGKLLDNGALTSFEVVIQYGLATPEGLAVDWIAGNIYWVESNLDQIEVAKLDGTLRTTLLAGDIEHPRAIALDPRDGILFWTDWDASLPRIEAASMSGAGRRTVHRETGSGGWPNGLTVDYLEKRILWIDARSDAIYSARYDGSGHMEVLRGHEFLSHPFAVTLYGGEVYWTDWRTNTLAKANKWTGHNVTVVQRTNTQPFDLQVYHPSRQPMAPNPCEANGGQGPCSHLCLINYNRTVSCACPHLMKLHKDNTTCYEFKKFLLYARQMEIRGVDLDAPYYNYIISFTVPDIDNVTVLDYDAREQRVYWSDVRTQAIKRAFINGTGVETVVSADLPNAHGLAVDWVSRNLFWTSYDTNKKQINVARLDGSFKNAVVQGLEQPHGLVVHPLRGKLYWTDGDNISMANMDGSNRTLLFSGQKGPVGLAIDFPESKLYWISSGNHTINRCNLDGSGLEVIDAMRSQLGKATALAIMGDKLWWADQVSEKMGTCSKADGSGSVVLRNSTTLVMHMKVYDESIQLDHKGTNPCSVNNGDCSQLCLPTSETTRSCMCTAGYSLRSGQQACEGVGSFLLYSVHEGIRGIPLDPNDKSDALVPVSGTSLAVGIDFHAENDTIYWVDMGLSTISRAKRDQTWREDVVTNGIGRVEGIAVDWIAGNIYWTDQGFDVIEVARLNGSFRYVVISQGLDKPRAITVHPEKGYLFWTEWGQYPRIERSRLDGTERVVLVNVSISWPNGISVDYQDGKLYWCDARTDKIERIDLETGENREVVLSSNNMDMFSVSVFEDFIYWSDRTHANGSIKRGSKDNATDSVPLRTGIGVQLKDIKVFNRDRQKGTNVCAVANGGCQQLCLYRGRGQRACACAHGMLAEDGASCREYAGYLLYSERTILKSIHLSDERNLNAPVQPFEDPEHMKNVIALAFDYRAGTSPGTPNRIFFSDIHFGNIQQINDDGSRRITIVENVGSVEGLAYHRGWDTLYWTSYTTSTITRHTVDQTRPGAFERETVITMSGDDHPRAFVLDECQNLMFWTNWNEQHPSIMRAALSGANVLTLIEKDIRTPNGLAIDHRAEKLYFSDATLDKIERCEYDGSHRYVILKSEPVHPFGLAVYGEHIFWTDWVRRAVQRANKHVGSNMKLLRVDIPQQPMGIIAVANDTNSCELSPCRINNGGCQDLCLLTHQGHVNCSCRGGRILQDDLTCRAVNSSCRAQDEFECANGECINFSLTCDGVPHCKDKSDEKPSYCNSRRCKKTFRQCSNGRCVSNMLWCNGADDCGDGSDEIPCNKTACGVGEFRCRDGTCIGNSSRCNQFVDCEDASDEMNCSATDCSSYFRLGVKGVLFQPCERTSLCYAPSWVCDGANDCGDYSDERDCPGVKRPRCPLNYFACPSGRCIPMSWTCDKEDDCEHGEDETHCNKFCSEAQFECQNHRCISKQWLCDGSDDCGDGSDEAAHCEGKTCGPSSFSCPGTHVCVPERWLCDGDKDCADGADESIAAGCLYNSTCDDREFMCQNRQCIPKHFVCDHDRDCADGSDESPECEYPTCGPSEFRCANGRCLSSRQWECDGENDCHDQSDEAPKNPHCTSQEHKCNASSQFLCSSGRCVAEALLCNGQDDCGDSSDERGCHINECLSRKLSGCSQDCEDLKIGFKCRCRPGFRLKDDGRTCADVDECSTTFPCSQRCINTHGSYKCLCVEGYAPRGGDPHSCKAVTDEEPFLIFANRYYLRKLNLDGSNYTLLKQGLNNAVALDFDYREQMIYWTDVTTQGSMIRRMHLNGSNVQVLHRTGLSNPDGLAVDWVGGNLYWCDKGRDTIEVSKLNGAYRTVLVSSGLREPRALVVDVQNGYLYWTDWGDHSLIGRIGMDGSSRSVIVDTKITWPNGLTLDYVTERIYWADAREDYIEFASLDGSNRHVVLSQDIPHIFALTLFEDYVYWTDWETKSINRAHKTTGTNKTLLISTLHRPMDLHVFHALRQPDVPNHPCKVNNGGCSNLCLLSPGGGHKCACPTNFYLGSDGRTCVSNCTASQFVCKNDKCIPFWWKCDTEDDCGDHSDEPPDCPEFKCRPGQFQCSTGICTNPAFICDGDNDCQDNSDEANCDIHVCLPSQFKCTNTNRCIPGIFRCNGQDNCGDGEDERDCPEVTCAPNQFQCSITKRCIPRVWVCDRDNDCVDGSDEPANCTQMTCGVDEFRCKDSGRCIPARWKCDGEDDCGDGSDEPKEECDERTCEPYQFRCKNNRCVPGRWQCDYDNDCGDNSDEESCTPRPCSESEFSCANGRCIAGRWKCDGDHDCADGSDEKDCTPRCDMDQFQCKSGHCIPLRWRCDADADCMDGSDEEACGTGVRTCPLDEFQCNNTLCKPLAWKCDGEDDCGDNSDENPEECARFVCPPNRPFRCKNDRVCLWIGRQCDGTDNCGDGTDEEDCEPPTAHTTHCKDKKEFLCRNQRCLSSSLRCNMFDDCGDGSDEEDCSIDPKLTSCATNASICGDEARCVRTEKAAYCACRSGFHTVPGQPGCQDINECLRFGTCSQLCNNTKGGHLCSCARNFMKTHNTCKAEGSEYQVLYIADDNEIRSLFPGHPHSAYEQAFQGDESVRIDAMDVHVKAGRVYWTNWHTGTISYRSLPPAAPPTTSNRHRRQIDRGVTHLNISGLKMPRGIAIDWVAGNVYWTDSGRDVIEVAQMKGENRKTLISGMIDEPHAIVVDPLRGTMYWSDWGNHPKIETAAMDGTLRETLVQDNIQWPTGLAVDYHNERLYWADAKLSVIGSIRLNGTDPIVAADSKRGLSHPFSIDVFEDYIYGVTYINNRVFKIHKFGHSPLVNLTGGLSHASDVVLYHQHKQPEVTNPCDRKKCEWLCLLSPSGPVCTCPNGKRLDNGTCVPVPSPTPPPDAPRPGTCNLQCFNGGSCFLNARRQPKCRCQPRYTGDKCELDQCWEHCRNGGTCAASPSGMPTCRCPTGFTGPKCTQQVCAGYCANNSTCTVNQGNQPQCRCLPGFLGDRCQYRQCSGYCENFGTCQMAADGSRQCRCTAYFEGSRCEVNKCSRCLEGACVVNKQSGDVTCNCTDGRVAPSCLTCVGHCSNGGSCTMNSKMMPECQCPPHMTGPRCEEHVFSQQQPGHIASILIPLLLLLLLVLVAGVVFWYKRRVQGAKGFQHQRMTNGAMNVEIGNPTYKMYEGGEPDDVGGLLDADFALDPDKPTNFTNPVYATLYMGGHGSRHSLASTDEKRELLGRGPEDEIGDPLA

[11] = system: SaOS-2 cells; experiment: proliferation in SaOS-2 cells; type: cell-based, human; details: only LRP-1 is expressed in SaOS-2 cells
Method: as §2

[12] = system: mature osteoclasts; experiment: bone-resorbing activity of mature osteoclasts; type: cell-based
[13] = system: LRP-1-null fibroblasts; experiment: proliferation in LRP-1-null versus LRP-1+/+ fibroblasts; type: cell-based

binding to LRP-2/megalin [4] | binding to LRP-1 [10] | Molecule | effect on lactoferrin-induced MAP kinase phosphorylation ([1]; in the presence of lactoferrin) | effect on endocytosis of lactoferrin ([2]; primary rat osteoblastic cells) | effect on lactoferrin-induced osteoblast proliferation ([3]; in the presence of lactoferrin) | activation of p42/44 MAP kinase signaling pathway ([1]; osteoblastic cells) | bone area [5] | indices of bone formation [5] | apoptosis induced by serum withdrawal [6] | osteoclastogenesis [7] | endocytosis by primary rat osteoblastic cells [2] | osteoblast differentiation [8] | number of mineralized bone nodules ([8]; long-term osteoblast cultures) | mitogenic to chondrocytes [9] | proliferation in SaOS-2 cells [11] | proliferation of cultured osteoblastic cells ([3]; cells of rat, mouse, and human origin) | bone-resorbing activity of mature osteoclasts [12] | proliferation in LRP-1-null fibroblasts compared with LRP-1+/+ cells [13]
– | – | RAP: the LRP-1/2-specific inhibitor, receptor-associated protein (RAP) (protein, UniProt P30533 35-357, looked up) Alpha-2-macroglobulin …: YSREKNQPKPSPKRESGEEFRMEKLNQLWEKAQRLHLPPVRLAELHADLKIQERDELAWKKLKLDGLDEDGEKEARLIRNLNVILAKYGLDGKKDARQVTSNSLSGTQEDGLDDPRLEKLWHKAKTSGKFSGEELDKLWREFLHHKEKVHEYNVLLETLSRTEEIHENVISPSDLSDIKGSVLHSRHTELKEKLRSINQGLDRLRRVSHQGYSTEAEFEEPRVIDLWDLAQSANLTDKELEAFREELKHFEAKIEKHNHYQKQLEIAHEKLRHAESVGDGERVSRSREKHALLEGRTKELGYTVKKHLQDLSGRISRARHNEL | blocked | abrogates this process | blocked | – | – | – | – | – | – | – | – | – | – | – | – | –
has been found to bind | has been found to bind | Lactoferrin: an 80 kDa glycoprotein present in milk and epithelial secretions; osteoblast growth factor present in fractionated bovine milk (protein, UniProt P24627 20-708, looked up) Lactotransferrin: APRKNVRWCTISQPEWFKCRRWQWRMKKLGAPSITCVRRAFALECIRAIAEKKADAVTLDGGMVFEAGRDPYKLRPVAAEIYGTKESPQTHYYAVAVVKKGSNFQLDQLQGRKSCHTGLGRSAGWIIPMGILRPYLSWTESLEPLQGAVAKFFSASCVPCIDRQAYPNLCQLCKGEGENQCACSSREPYFGYSGAFKCLQDGAGDVAFVKETTVFENLPEKADRDQYELLCLNNSRAPVDAFKECHLAQVPSHAVVARSVDGKEDLIWKLLSKAQEKFGKNKSRSFQLFGSPPGQRDLLFKDSALGFLRIPSKVDSALYLGSRYLTTLKNLRETAEEVKARYTRVVWCAVGPEEQKKCQQWSQQSGQNVTCATASTTDDCIVLVLKGEADALNLDGGYIYTAGKCGLVPVLAENRKSSKHSSLDCVLRPTEGYLAVAVVKKANEGLTWNSLKDKKSCHTAVDRTAGWNIPMGLIVNQTGSCAFDEFFSQSCAPGADPKSRLCALCAGDDQGLDKCVPNSKEKYYGYTGAFRCLAEDVGDVAFVKNDTVWENTNGESTADWAKNLNREDFRLLCLDGTRKPVTEAQSCHLAVAPNHAVVSRSDRAAHVKQVLLHQQALFGKNGKNCPDKFCLFKSETKNLLFNDNTECLAKLGGRPTYEEYLGTEYVTAIANLKKCSTSPLLEACAFLTR | – | – | – | activates the p42/44 MAP kinase signaling pathway | dose-dependent and substantial increases | dose-dependent and substantial increases | inhibits apoptosis | strongly inhibits osteoclastogenesis | is endocytosed | capable of inducing osteoblast differentiation | significantly increase | mitogenic to chondrocytes | induces proliferation | stimulates proliferation of cultured osteoblastic cells of rat, mouse, and human origin potently and in a dose-dependent manner | does not affect | substantially less marked
